According to patent publication US9283300B2, “Use of midkine protein and the protein-containing medical device” (GENERAL REGENERATIVES, LTD, priority 2009, dated 2016):

Key:
[1] = system: cartilage of normal rat (articular, ear, tracheal, intervertebral disc); assay: rhMK effect on cartilage thickness of normal rats (subcutaneous injection, histology); format: in vivo; details: rhMK 175 μg/kg s.c. daily for a week
Description: Method. 8-weeks-old male C57BL/6J mice were injected subcutaneously with recombinant human MK (rhMK) or control saline. The injection volume was 0.5 ml, given daily for a week. The mice were grouped (3 animals per group): Saline (NS) group, rhMK groups injected with various dosages at 10, 33, 100, 300, 900 μg/kg. Rats were injected with saline or rhMK (175 μg/kg) daily for a week. Rabbits were injected with saline or rhMK (92.5 μg/kg) daily for two week. Histological observation and evaluation. The knee joint tissues of all mice and rats were fixed in 10% (v/v) formalin for 1 day, the tissues of rabbits were fixed for 2 days. The fixed tissues were subjected to demineralization in liquid (7% AlCl3.6H2O, 5% methanoic acid, 8.5% HCl) 4 days for mouse and rats issues, and 10 days for rabbit tissues. The demineralized tissues were subjected to dehydration by gradient ethanol, and treated for transparency by xylene, and embedded in wax. Tissue sections were prepared by the paraffin slicing machine (Laica), and stained with hemotoxylin/eosin or Safranine O/fast green staining. Slides were observed under microscope and analyzed. The thickness of cartilage tissues were measured by the vernier caliper on microscope. Three tissue sections from each sample were measured and analyzed statisticaly. The distance between surface of cartilage to subchondral tide line was measured at ½ position of femoral condyle to denote the thickness of knee-joint cartilage. The thickness of cartilage at central part of ears was measured to denote the thickness of ear elastic cartilage. The distance between out surface of annulus to nucleus of the intervertebral disc was measured to denote the thickness of thoracic intervertebral disc (T2-3). To verify the results of rhMk in mice, we performed the same experiments in vivo using commonly used laboratory animals, rat and rabbit. Rats were injected subcutaneously with rhMK at 175 μg/kg/day for one week, and rabbits was injected subcutaneously 92.5 ug/kg/day for two weeks. […] The injection dose of rhMK: mice was injected subcutaneously 300 μg/kg daily for a week; rats were injected 175 μg/kg daily for a week; and New Zealand rabbits was injected 92.5 μg/kg daily for two weeks. Three animals per group were analyzed.

[2] = system: partial-thickness injury of rabbit knee cartilage; assay: Partial-thickness cartilage defect of adult rabbit knee joint, intra-articular rhMK; format: in vivo, New Zealand white rabbits; details: adult rabbit knee cartilage partial-thickness injury model, 4 and 9 weeks after surgery, versus saline side
Description: Method. 9˜10-month-old male New Zealand white rabbits (3.0˜3.5 kg weight) were anesthetized with 3% pentobarbital sodium (30 mg/kg) by ear vein injection. After anesthesia, the skin was prepared on both sides of the knees. With conventional surgical sterilization and under sterile conditions, the inner side of the knees was cut to expose the femoral condyle surface. A hand-drill was used to make a partial-thickness cartilage injury of 3 mm in diameter on the femoral condyle surface. The partial-thickness injury was created by the criterion of no bleeding in the injured cartilage hole. The wound was sutured with 4-0 lines. 400,000 units penicillin was injected every day for one week to prevent the wound site infection. 24 h after the surgery, normal saline or rhMK was injected into the knee-articular cavity. Partial-thickness cartilage damages were created on both rabbit knees. One knee received 0.5 ml saline as control side, while 0.5 ml rhMK was given into the other knees as treatment side. The injections were given three times a week, for 2 weeks totally. The rabbits were kept in cage and allowed freedom of movement without the knee fixed. 4 and 9 weeks after the surgery, rabbits were sacrificed. The knee-joint cartilage tissues were removed for routine biopsy, H&E, and toluidine blue staining, and their histological changes were analyzed under microscope.

[3] = system: rat primary articular chondrocyte; assay: MTT proliferation assay, primary chondrocytes in monolayer; format: cell-based; details: for light absorbance at 490 nm in MTT assay: Articular chondrocyte, 48 h, mean ± SD
Description: (§1) 1. Preparation of primary chondrocyte. The 8-week-old male SD rats were sacrificed under sterile conditions. The articular cartilage, fibrocartilage and elastic cartilage tissue were isolated from the femur joints, meniscus and outer ear respectively using a scalpel. The isolated cartilage were cut into small pieces, washed twice with phosphate buffered saline (PBS), and digested with trypsin (0.25% (w/v) trypsin/0.02% (w/v) EDTA) at 37° C. for 30 min. The articular cartilage and elastic cartilage were further digested with 0.2% type II collagenase for additional 16 h, and the fibrocartilage were further digested with 0.15% type I collagenase for additional 16 h. After digestion, three chondrocytes were passed through 100 μm filter (Falcon, USA) into 15 ml centrifuge tubes, centrifuged at room temperature at 2000 rpm for 5 min. Cells were resuspended in DMEM containing 10% FBS (fetal bovine serum). Trypan blue staining of the freshly isolated cells was used to monitor the percentage of live cells under the microscope. When the number of live cells is more than 95%, it was used for subsequent experiments.
(§2) 2. MTT assay. Three types of primary chondrocytes were suspended at a density of 5×10^4 cells/ml in DMEM containing 10% FBS. Cells were seeded into a 96-well plate (100 μl per well) and cultured at 37° C. under 5% CO2 for 48 h. The cells were washed with serum-free DMEM medium once. Different concentrations of rhMK (0.5, 1.0, 3.0, 5.0, 9.0 μg/ml) in DMEM (containing 0.5% FBS) were added to each well and the cells were cultured for additional 48 h. After incubation, the medium was replaced with 100 μl serum-free DMEM medium and 20 μl MTT solution (0.5 mg/ml, in PBS), incubated at 37° C. under 5% CO2 for 4 h. After removing the liquid, 120 μl DMSO was added to dissolve the MTT crystals by shaking for 1 min on a micro-plate oscillator. Light absorbance at 490 nm was measured using a microplate reader (BIO-TEK, USA).

[4] = system: rat primary auricular (ear elastic cartilage) chondrocyte; assay: as above; format: cell-based; details: for light absorbance at 490 nm in MTT assay: Auricular chondrocyte, 48 h, mean ± SD
Description: as §1, §2

[5] = system: rat primary fibrochondrocyte; assay: as above; format: cell-based; details: for light absorbance at 490 nm in MTT assay: Fibrochondrocyte, 48 h, mean ± SD
Description: as §1, §2

B1: rhMK: recombinant human midkine mature protein (SEQ ID NO.1) expressed in E. coli and purified by ion-exchange chromatography (protein, listed as Homo sapiens)
chain: MKKKDKVKKGGPGSECAEWAWGPCTPSSKDCGVGFREGTCGAQTQRIRCRVPCNWKKEFGADCKYKFENWGACDGGTGTKVRQGTLKKARYNAQCQETIRVTKPCTPKTKAKAKAKKGKGKD
B1 was tested, and the Cartilage thickness, Ear [1] was 107 ± 3.4 µm, the Cartilage thickness, Femoral condyle [1] was 263 ± 54.4 µm and the Cartilage thickness, Intervertbral disc (T2-3) [1] was 659 ± 40.8 µm. For the same molecule, the Cartilage thickness, Trachea [1] was 246 ± 9.1 µm, the “repair of injured cartilage (histology)” value [2] was “repairs the injured cartilage with regenerated cartilage tissues” and the “light absorbance at 490 nm in MTT assay” value ([3]; rhMK 0.5 μg/ml) was 0.33 ± 0.02. For the same molecule, the “light absorbance at 490 nm in MTT assay” value ([3]; rhMK 1.0 μg/ml) was 0.40 ± 0.01, the “light absorbance at 490 nm in MTT assay” value ([3]; rhMK 3.0 μg/ml) was 0.38 ± 0.01 and the “light absorbance at 490 nm in MTT assay” value ([3]; rhMK 5.0 μg/ml) was 0.30 ± 0.01. The “light absorbance at 490 nm in MTT assay” value ([3]; rhMK 9.0 μg/ml) was 0.39 ± 0.01, the “lowest effective dose of rhMK (proliferation, MTT)” value (“lowest effective dose of rhMK” below) ([3]; articular chondrocytes, monolayer) was 1 µg/mL and the “light absorbance at 490 nm in MTT assay” value ([4]; rhMK 0.5 μg/ml) was 0.52 ± 0.05. The “light absorbance at 490 nm in MTT assay” value ([4]; rhMK 1.0 μg/ml) was 0.54 ± 0.02, the “light absorbance at 490 nm in MTT assay” value ([4]; rhMK 3.0 μg/ml) was 0.56 ± 0.01 and the “light absorbance at 490 nm in MTT assay” value ([4]; rhMK 5.0 μg/ml) was 0.56 ± 0.02. The “light absorbance at 490 nm in MTT assay” value ([4]; rhMK 9.0 μg/ml) was 0.56 ± 0.02, the “lowest effective dose of rhMK” value ([4]; ear elastic cartilage cells, monolayer) was 0.5 µg/mL and the “light absorbance at 490 nm in MTT assay” value ([5]; rhMK 0.5 μg/ml) was 0.42 ± 0.02. For the same molecule, the “light absorbance at 490 nm in MTT assay” value ([5]; rhMK 1.0 μg/ml) was 0.43 ± 0.02, the “light absorbance at 490 nm in MTT assay” value ([5]; rhMK 3.0 μg/ml) was 0.47 ± 0.00 and the “light absorbance at 490 nm in MTT assay” value ([5]; rhMK 5.0 μg/ml) was 0.45 ± 0.00. The “light absorbance at 490 nm in MTT assay” value ([5]; rhMK 9.0 μg/ml) was 0.45 ± 0.00 and the “lowest effective dose of rhMK” value ([5]; fibrochondrocyte, monolayer) was 3 µg/mL.
